Assay results taken from article PMC8132391.

Key:
[1] = target: Bn86287 (104-607 amino acids), COG4337 protein of Bigelowiella natans (Bigelowiella natans); test: SEC-MALS; Superdex 200 increase 10/300 GL, 293 K, 20 mM Tris-HCl pH 8.0, 100 mM NaCl; Bn86287 3.7 mg/ml and all2909 4.9 mg/ml, 30 ul injected
[2] = target: all2909, COG4337 protein of Anabaena sp. PCC 7120, without N-terminal leader (Anabaena sp. PCC 7120) (UniProt Q8YT18); test: as above

stoichiometry N [1] | stoichiometry N [2] | Substance
2 |  | Bn86287 (104-607 amino acids), COG4337 protein of Bigelowiella natans (enzyme)
 | 4 | all2909, COG4337 protein of Anabaena sp. PCC 7120, without N-terminal leader (from UniProt Q8YT18 31-205) (enzyme)
